For assay [1], the target named is T1, SAS1B extracellular domain (aa 164-431) polypeptide (human, UniProt Q6HA08 164-431).
T1 construct: mammalian cell-expressed recombinant; also called truncated SAS1B
T1 sequence: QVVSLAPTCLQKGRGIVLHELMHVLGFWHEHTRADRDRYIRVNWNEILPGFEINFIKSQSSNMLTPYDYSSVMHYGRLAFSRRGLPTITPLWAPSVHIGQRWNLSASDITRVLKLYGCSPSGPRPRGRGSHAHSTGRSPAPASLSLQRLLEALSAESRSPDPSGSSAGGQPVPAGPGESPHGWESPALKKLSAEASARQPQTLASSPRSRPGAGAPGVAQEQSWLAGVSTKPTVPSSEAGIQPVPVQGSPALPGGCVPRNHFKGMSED
Description: western blot, mammalian cell-expressed recombinant SAS1B. On the procedure:
SAS1B monoclonal antibodies were analyzed with mammalian cell-expressed recombinant SAS1B by western blotting.
A general note: Immunoblotting shows a protein as a band on a membrane.

The target of assay [2] is T2, SAS1B C-terminus extracellular domain (aa 160-431) (human, UniProt Q6HA08 160-431).
T2 construct: also called C-term extracellular domain
T2 sequence: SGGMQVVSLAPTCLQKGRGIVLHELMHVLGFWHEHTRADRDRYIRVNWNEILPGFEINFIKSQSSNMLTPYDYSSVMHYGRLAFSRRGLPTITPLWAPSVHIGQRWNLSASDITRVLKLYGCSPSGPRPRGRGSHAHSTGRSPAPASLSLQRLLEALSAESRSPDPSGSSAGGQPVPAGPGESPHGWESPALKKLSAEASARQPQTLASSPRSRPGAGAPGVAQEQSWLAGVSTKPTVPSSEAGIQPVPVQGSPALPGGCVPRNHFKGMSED
Description: western blot (FIG. 22).

Another assay addresses T3, mouse SAS1B (mouse, UniProt Q6HA09 24-435, limits assumed).
T3 sequence (looked up): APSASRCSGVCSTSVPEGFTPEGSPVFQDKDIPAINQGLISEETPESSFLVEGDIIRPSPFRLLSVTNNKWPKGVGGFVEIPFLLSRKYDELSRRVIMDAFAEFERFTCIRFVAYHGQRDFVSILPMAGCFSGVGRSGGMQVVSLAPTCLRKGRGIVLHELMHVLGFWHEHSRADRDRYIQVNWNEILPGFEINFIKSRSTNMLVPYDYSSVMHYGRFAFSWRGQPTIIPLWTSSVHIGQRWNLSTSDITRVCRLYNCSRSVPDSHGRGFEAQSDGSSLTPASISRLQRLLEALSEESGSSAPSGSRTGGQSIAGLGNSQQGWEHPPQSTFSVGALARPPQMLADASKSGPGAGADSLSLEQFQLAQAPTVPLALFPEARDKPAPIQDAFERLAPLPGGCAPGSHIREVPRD
Description: summary table (Table 1).

Assay [3] has as its target T4, SAS1B on the surface of live cancer cells (human, UniProt Q6HA08 24-431).
T4 sequence: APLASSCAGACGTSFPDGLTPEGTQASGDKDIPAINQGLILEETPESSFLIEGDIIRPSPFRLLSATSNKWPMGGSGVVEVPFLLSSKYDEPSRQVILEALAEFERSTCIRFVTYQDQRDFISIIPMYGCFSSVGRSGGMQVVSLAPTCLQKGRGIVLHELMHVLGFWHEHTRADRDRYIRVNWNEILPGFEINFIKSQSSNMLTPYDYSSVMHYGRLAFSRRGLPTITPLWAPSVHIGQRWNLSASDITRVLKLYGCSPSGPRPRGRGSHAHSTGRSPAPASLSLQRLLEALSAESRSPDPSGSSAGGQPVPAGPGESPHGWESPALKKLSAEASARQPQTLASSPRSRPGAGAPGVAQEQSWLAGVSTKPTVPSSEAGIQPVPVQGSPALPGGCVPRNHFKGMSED
Description: cell-based or functional assay.

B1: anti-human SAS1B murine monoclonal antibody SB1 (antibody, IgG2a, V domains shown)
VH: EVQLQQSGPELVKPGSSVKISCKASGYTFTDYNMDWVKQSHGKSLEWIGAINPNNGGTSYNQKFKGKATLTVDKSSSTAYMELRSLTSEDSAVYYCATNEYWGQGTTLTVSS
VL: NIVMTQSPKSMSMSVGERVTLSCKASENVGTYVSWYQQKPEQSPKLLIYGASNRYTGVPDRFTGSGSATDFTLTISSVQAEDLADYHCGQSYSYPWTFGGGTKLEIK
notes: also called SB1 mAb
Turning to B1, the binding result in assay [1] and in assay [2] was “no binding” each time.

B2: anti-human SAS1B murine monoclonal antibody SB4 (antibody, IgG2a, V domains shown)
VH: EVQLQQSGPELVKPGSSVKISCKPSGYTFTDYNMVWMKQSHGKSLEWIGAINPNNGGTTYNQKFKGKATLTVDKSSSTAYMELRSLTSEDSAVYYCAPNWDWFAYWGQGTLVTVSA
VL: DVLMTQTPLSLPVSLGDQASISCRSSQSILHSNGNTYLEWYLQKPGQSPKLLIYKVSNRFSGVPDRFSGSGSGTDFTLKISRVEAEDLGVYYCFQGSHVPFTFGSGTKLEIK
notes: Mouse hybridoma antibody, isotype IgG2a-k; also called SB4 mAb
Regarding B2, the binding result with mouse SAS1B was “no binding”. Moreover, the binding result in assay [1] is “no binding”. Also, the binding result in assay [2] was “no binding”. In assay [3], the “percent of cells killed at 0.1 nM mAb, ADC assay with anti-mouse Fab-cleavable-Duocarmycin, pancreatic cancer cells 366, ~72 h, cellular ATP” value (shortened to “percent of cells killed at 0.1 nM mAb”) is 33%; the “percent of cells killed at 1 nM mAb, ADC assay with 15 nM anti-mouse Fab-cleavable-Duocarmycin, MPanc96 pancreatic cancer cells, ~72 h, cellular ATP” value is 64%; the “percent of cells killed at 1 nM mAb, ADC assay with anti-mouse Fab-cleavable-Duocarmycin, pancreatic cancer cells 366, ~72 h, cellular ATP” value turned out to be 77%.

B3: anti-human SAS1B murine monoclonal antibody SB7 (antibody, IgG2b, V domains shown)
VH: EVQLQQSGPELVKPGSSVKISCKPSGYTFTDYNMVWMKQSHGKSLEWIGAINPNNGGTTYNQKFKGKATLTVDKSSSTAYMELRSLTSEDSAVYYCAPNWDWFAYWGQGTLVTVSA
VL: DVLMTQIPLSLPVSLGDQASISCRSSQSILHSNGNTYLEWYLQKPGQSPKLLIYKVSNRFSGVPDRFSGSGSGTDFTLKISRVEAEDLGVYYCFQGSHVPFTFGSGTKLEIK
In the case of B3, the binding result (with mouse SAS1B; in assay [1]; in assay [2]) was “no binding” each time.

B4: anti-human SAS1B murine monoclonal antibody SB3 (antibody, IgG2b, V domains shown)
VH: EVQLQQSGPELVKPGSSVKISCKASGYTFTDYNMVWVKQSHGKSLEWIGAVNPNNGGTSYNQKFKGKATLTVDKSSSTAYMELRSLTSEDSAVYYCVPNWDWFAYWGQGTLVTVSA
VL: DVLMTQTPLSLPVSLGDQASISCRSSQSLVHSNGNTYLEWYLQKPGQSPNLLIYKVSNRFSGVPDRFSGSGSGTDFTLKISRVEAEDLGVYYCFQGSHVPFTFGSGTKLEIK
notes: also called SB3 mAb
Regarding B4, the binding result (with mouse SAS1B; in assay [1]; in assay [2]) was “no binding” throughout.

B5: anti-human SAS1B murine monoclonal antibody SB2 (antibody, IgG2b, V domains shown)
VH: EVQLQQSGPELVKPGSSVKISCKASGYTFTDYNMVWVKQSHGKSLEWIGAVNPNNGGTSYNQKFKGKATLTVDKSSSTAYMELRSLTSEDSAVYYCVPNWDWFAYWGQGTLVTVSA
VL: DVLMTQTPLSLPVSLGDQASISCRSSQSLVHSNGNTYLEWYLQKPGQSPNLLIYKVSNRFSGVPDRFSGSGSGTDFTLKISRVEAEDLGVYYCFQGSHVPFTFGSGTKLEIK
notes: also called SB2 mAb
For B5, the binding result with mouse SAS1B is recorded as “no binding”. The binding result in assay [1] was “no binding”. In assay [2], the binding result is “no binding”. Moreover, in assay [3], the “percent of cells killed at 0.1 nM mAb” value came out at 59%; the “percent of cells killed at 1 nM mAb, ADC assay with 15 nM anti-mouse Fab-cleavable-Duocarmycin, MPanc96 pancreatic cancer cells, ~72 h, cellular ATP” value stood at 80%; the “percent of cells killed at 1 nM mAb, ADC assay with anti-mouse Fab-cleavable-Duocarmycin, pancreatic cancer cells 366, ~72 h, cellular ATP” value was 88%; the “viability at 0.01 nM mAb, ADC assay with Fab-anti-mouse IgG Fc conjugated to Duocarmycin DM (cleavable linker), uterine cancer cells” value is 66%.

B6: anti-human SAS1B murine monoclonal antibody SB5 (antibody, IgG2b, V domains shown)
VH: EVQLQQSGPELVKPGSSVKISCKPSGYTFTDYNMVWMKQSHGKSLEWIGAINPNNGGTTYNQKFKGKATLTVDKSSSTAYMELRSLTSEDSAVYYCAPNWDWFAYWGQGTLVTVSA
VL: DVLMTQIPLSLPVSLGDQASISCRSSQSILHSNGNTYLEWYLQKPGQSPKLLIYKVSNRFSGVPDRFSGSGSGTDFTLKISRVEAEDLGVYYCFQGSHVPFTFGSGTKLEIK
notes: Mouse hybridoma antibody, isotype IgG2b-k; also called SB5 mAb
Turning to B6, the binding result with mouse SAS1B is “no binding”. The binding result in assay [1] is “no binding”. For the same molecule, the binding result in assay [2] is recorded as “no binding”. Also, in assay [3], the “percent of cells killed at 0.1 nM mAb” value stood at 49%; the “percent of cells killed at 1 nM mAb, ADC assay with 15 nM anti-mouse Fab-cleavable-Duocarmycin, MPanc96 pancreatic cancer cells, ~72 h, cellular ATP” value came out at 57%; the “percent of cells killed at 1 nM mAb, ADC assay with anti-mouse Fab-cleavable-Duocarmycin, pancreatic cancer cells 366, ~72 h, cellular ATP” value came to 76%; the “viability at 0.01 nM mAb, ADC assay with Fab-anti-mouse IgG Fc conjugated to Duocarmycin DM (cleavable linker), uterine cancer cells” value was determined as 87%.

B7: anti-human SAS1B murine monoclonal antibody SB6 (antibody, IgG2b, V domains shown)
VH: EVQLQQSGPELVKPGSSVKISCKPSGYTFTDYNMVWMKQSHGKSLEWIGAINPNNGGTTYNQKFKGKATLTVDKSSSTAYMELRSLTSEDSAVYYCAPNWDWFAYWGQGTLVTVSA
VL: DVLMTQIPLSLPVSLGDQASISCRSSQSILHSNGNTYLEWYLQKPGQSPKLLIYKVSNRFSGVPDRFSGSGSGTDFTLKISRVEAEDLGVYYCFQGSHVPFTFGSGTKLEIK
Regarding B7, the binding result (with mouse SAS1B; in assay [1]; in assay [2]) was “no binding” each time.

Broadly, the viability is a read-out of living cells in per cent, often relative to untreated cells. Low readings indicate more harm to the cells, high ones less harm to the cells.
